The values that follow come from paper PMC5376753.

B1: recombinant activin A (ligand)
chain: GLECDGKVNICCKKQFFVSFKDIGWNDWIIAPSGYHANYCEGECPSHIAGTSGSSLSFHSTVINHYRMRGHSPFANLKSCCVPTKLRPMSMLYYDDGQNIIKKDIQNMIVEECGCS
B2: recombinant growth and differentiation factor 11 (GDF11) (ligand)
chain: NLGLDCDEHSSESRCCRYPLTVDFEAFGWDWIIAPKRYKANYCSGQCEYMFMQKYPHTHLVQQANPRGSAGPCCTPTKMSPINMLYFNDKQQIIYGKIPGMVVDRCGCS

Bounds are passed on as bounds.

The assay addresses activin type II B receptor (ActRIIB) (human (endogenous in HEK293T)) (UniProt Q13705).
Sequence of UniProt Q13705 (Q13705 19-512): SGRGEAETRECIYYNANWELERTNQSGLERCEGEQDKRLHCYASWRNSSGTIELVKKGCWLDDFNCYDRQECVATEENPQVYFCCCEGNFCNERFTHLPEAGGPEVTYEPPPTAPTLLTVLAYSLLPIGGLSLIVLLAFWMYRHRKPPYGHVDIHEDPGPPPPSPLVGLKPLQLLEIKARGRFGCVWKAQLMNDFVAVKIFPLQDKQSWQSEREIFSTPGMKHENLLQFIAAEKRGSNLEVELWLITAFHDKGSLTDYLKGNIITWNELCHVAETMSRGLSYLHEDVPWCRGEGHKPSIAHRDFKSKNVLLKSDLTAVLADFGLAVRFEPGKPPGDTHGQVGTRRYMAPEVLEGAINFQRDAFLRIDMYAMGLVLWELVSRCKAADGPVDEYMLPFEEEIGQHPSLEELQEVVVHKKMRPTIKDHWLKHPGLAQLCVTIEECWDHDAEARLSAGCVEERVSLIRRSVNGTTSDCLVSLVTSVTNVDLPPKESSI
For “recombinant myostatin (Mstn) (from UniProt O14793 267-375) (ligand)”, the p-SMAD2/3 AlphaLISA response of HEK293T cells after 1 h of ligand; potency of the ligand with 100 nM anti-ActRIIB (murinized BYM338) applied overnight against 0 nM antibody is > 100 fold.
Regarding B1, the p-SMAD2/3 AlphaLISA response of HEK293T cells after 1 h of ligand; potency of the ligand with 100 nM anti-ActRIIB (murinized BYM338) applied overnight against 0 nM antibody is > 100 fold.
B2 returned a p-SMAD2/3 AlphaLISA response of HEK293T cells after 1 h of ligand; potency of the ligand with 100 nM anti-ActRIIB (murinized BYM338) applied overnight against 0 nM antibody of 100 fold.
